Source: the DeepSol protein solubility set

Assay: soluble on expression in E. coli; label from the status in PepcDB or PDB records

Row | Sequence | soluble on expression in E. coli
1 | PGAPSTVRISKNVDGIHLSWEPPTSPSGNILEYSAYLAIRTAQMQDNPSQLVFMRIYCGLKTSCTVTAGQLANAHIDYTSRPAIVFRISAKNEKGYGPATQIRWLQGNSK | soluble
2 | PGVGDYKGLLKWTSHNQYEKEVKKADEQYGKLYAKFADMPIEKVAKDPQAKQIAQNLFNTYCIQCHGSDAKGSKGFPNLTDSDWLWGGDPDKIHETIEKGRVATMPAWGPALGEEGVKDVAHYVMSLSKPEGQYDEERAARGQALFSGPPANCFTCHGDKGQGIQGLGPNLTDDVWLWGGTQKSIIETITNGRSSQMPAWGHFLDKDKLHIMTAYVWGLSDKDGKAPVKKAEPAPTPAPAAEPAASAPAEAAQAVSEAKPAAAEPKAEEKAAPAAKADGK | not soluble
3 | PITLVKDILSKPPITAHSNISIMEAAKILIKHNINHLPIVDEHGKLVGIITSWDIAKALAQNKKTIEEIMTRNVITAHEDEPVDHVAIKMSKYNISGVPVVDDYRRVVGIVTSEDISRLFGGKK | soluble
4 | PKAPVTGYVRFLNERREQIRTRHPDLPFPEITKMLGAEWSKLQPAEKQRYLDEAEKEKQQYLKELWAYQQSEAYKVCTE | soluble
5 | PLKEQKVINTANITTNSKLDLAEYENGLMNIAKEQFDTENHVLQLNQYIPEKLVDELVAKVKAPVLTNIIEQDYFGKQNSNELSLSGVVIGLAMSSSVSNEEALSKGTEVAGQLIEAIHKNGKYNKSPITFAIFKQESTSSLKNGTYIASATVQKNDTNLGNWNAIEEKAYSYPSDEFTQAHGEDNEKINKFAEAMKGFSPGDFIPVNAKVSYKKNQMDTLNMDIVIKYNGKTELMALTQLAAQSMLDQLPKDAKVQLQIKSENKIEAIVIKEKNSDKPFVSFL | soluble
6 | PLQFHSVHGDNIRISRDGTLARRFESFCRAITFSARPVRINERICVKFAEISNNWNGGIRFGFTSNDPVTLEGTLPKYACPDLTNRPGFWAKALHEQYCEKDNILYYYVNGAGDVIYGINNEEKGVILTGIDTRSLLWTVIDIYGNCTGIEFLDSRIYMYQ | soluble
7 | PMDDIVRIHASSGTTGKPTVVGYTRKDIEIWSELMARSFAAAGVHKGDIIHNAYGYGLFTGGLGAHYGAERLGASVIPMSGGNTKKQIMIMKDFGSTVLTCTPSYSLFMAEAAREEGVDFRQLKLHVGIFGAEPWSESMRAEIEQKLNLCAIDIYGLSEIMGPGVAIECREAKKGLHI | not soluble
8 | PPHVKFIKEKDICSYEEASDPGHFRWYPKGKLMRDLLADYVYNLVVNMGAMPVETPIMYDLGNPAIREHADKFGERQYRFRQGNKELMLRFAACFGQFMMKKDMYLLPRYLPLKLYELSTYSFRYEQRGELVGLKRLRCFTMPDMHTVCLNLEQAMEEFEKQFWECLKTGDDLNLSYSVIFRFTKDFFDEHRDWFFKIAKEYKNKYGKDVILEILPKRKHYWVGKVDIAVIDSLGRPIENPTVQIDVESAKRFDIKVHTNEGEIYPIILHCSPTGSIERVLCGLLEKAA | not soluble
9 | PQKICLICGDEASGCHYGVLTCGSCKVFFKRAMEGQHNYLCAGRNDCIVDKIRRKNCPACRLRKCCQAGMVLGGRKFK | soluble
10 | PQKIFTPSAEIVKYTKIIAMEKLYAVFTDYEHDKVSRDEAVNKIRLDTEEHLKEKFPEVDQFEIIESFNIVAKEVFRSIILNEYKRCDGRD | soluble
11 | PRKASRKPPREESSATCVLEQPGALGAQILLVQRPNSGLLAGLWEFPSVTWEPSEQLQRKALLQELQRWAGPLPATHLRHLGEVVHTFSHIKLTYQVYGLALEGQTPVTTVPPGARWLTQEEFHTAAVSTAMKKVFRVYQGQ | soluble
12 | PRLWEGQDVLARWTDGLLYLGTIKKVDSAREVCLVQFEDDSQFLVLWKDISPAAL | soluble
13 | PSIKSGTILHAWNWSFNTLKNNMKDIHDAGYTAIQTSPINQVKEGNKGDKSMGNWYWLYQPTSYQIGNRYLGSEEEFKEMCAAAEEYGVKVIVDAVINHTTSDYAAISNEIKSISNWTHGNTQIKNWSDRWDVTQNSLLGLYDWNTQNTQVQSYLKRFLERALNDGADGFRYDAAKHIELPDDGNYGSQFWPNITNTSAEFQYGEILQDSASRDAAYANYMNVTASNYGHSIRSALKNRNLSVSNISHYASDVSADKLVTWVESHDTYANDDEESTWMSDDDIRLGWAVIASRSGSTPLFFSRPDGGGNGVRFPGKTQIGDRGSALFEDQAIVAVNTFHNVMAGQPEELSNPNGNNQIFMNQRGSKGVVLANAGSSSVSINASTKLPDGSYDNKAGTGSFQVRDGKLTGTINARSVAVLYPD | soluble
14 | PSTVSHFMAFNPKNDVLNQRTIREAISKSIDAKDIAGKSVNGLFQKNVQFVTKNNQQPHDYDMKAAERLLKSEGYHKNDDGIFEKNGKPLSFNLVIQTAEFPNWKDKAEKVQRQLKQAGIKLNVKTLDSQSYYDTLWTKKDYDLIFYRTYSDALMPYNFISSVFKNNDGQPGVLADDETLTKQLDDFPSTVSKEDQQCSFDDIFKHFNQQYYGVPIAYPNETFVVSDKV | soluble
15 | PTAGADTIEYCVTHSESKALIGGKLDDPAATQQVIDAMPELISIALPYDSAPQCQYQFNALIADAVPSEERPQHYDDKLMSLVYTSGTSGLPKGAMLTYGAFSWSVQQLINHIGIQANDRLFSYLPLAHITER | not soluble
16 | PTVLAVTDEELTIRFVSPAIERVLGYDMESLVGTNWLDLVHPADTDRVLATLTGEREDDGTEYRFRNADGDWVWLETIVSSDTE | not soluble
17 | PWTQNKRNLKHLNQLKEDILNNFEDLKLKDEKIIVMLSGGKDSAVSLAVAKELGLNVHLCVHFVHKWSWDISTNEAKKLADRFNIPIIFPNVTEELAKKTQGAKGKSICRICKTIMKARMIDIAKEENAKIIMTGETALEKIAGPVFQYIRENNTNVKRKDEFELYKKMEITKVPKRYKIHFFRPLIRVGHFDVFNLQKYYNIDIKRVSE | not soluble
18 | QAMTKTLRTPEHVYLCQRLRQARLDAGLTQADLAERLDKPQSFVAKVETRERRLDVIEFAKWMAACEGLDVVSEIVATIAEGRAQA | soluble
19 | QDVIVRTAVAEDVAPIIKMRKHIKEFGSRDENEELIIRQIEKGVKRIYYIEQDQEVVAVAETSAENSFSAMITGVATSDGYRQRGFASTLLKKLCCDVLAEGKKPCLFYDNPVAGEIYHRLGFEHTGDFVMYK | not soluble
20 | QGHMRVEVFPVEGLPLIKEGDDLAELISSRVRFEDGDVLVVCSTVISKAEGRIRRLEEFNPSERAKEIAARIGKPAEFVQAVLEESEEVLLDFPFLLVKAKFGNVCVNAGIDASNVEEGSLLLPPLDPDGSAEKLRRRILELTGKRVGVIITDTNGRCFRRGVVGFAIGISGVKAMKDWIGRKDLYGRELEVTVECVADEIAAFANLLMGEGGDGIPAVVVRGLNVAGEGSMEEIYRSEEEDVIRRCLKRCLGS | soluble
21 | QIAPLFWLENTIEKVEGMRPYTPLEMAGREVYIREGCYVCHSQMIRPMRDEVERYGHYSLAAESMYDHPFQWGSKRTGPDLARVGGRYSDDWHVDHMRDPQSVVPESVMPKYGYLERTMIDGKYIGDLMAANAIVGVPYTDEMIEAAQADFAAQADPDSDYDGLLERYGDKVNVRNFDGQPGVSEADALIAYLQMLGT | not soluble
22 | QIDYRDVFIEFLTTFKGNNNQNKYIERINELVAYRKKSLIIEFSDVLSFNENLAYEIINNTKIILPILEGALYDHILQLDPTYQRDIEKVHVRIVGIPRVIELRKIRSTDIGKLITIDGILVKVTPVKERIYKATYKHIHPDCMQEFEWPEDEEMPEVLEMPTICPKCGKPGQFRLIPEKTKLIDWQKAVIQERPEEVPSGQLPRQLEIILEDDLVDSARPGDRVKVTGILDIKQDSPVKRGSRAVFDIYMKVSSIEVSQKVLDEVIISEEDEKKIKDLAKDPWIRDRIISSIAPSIYGHWELKEALALALFGGVPKVLEDTRIRGDIHILIIGDPGTAKSQMLQFISRVAPRAVYTTGKGSTAAGLTAAVVREKGTGEYYLEAGALVLADGGIAVIDEIDKMRDEDRVAIHEAMEQQTVSIAKAGIVAKLNARAAVIAAGNPKFGRYISERPVSDNINLPPTILSRFDLIFILKDQPGEQDRELANYILDVHSGKSTKNIIDIDTLRKYIAYARKYVTPKITSEAKNLITDFFVEMRKKSSETPDSPILITPRQLEALIRISEAYAKMALKAEVTREDAERAINIMRLFLESVG | soluble
23 | QKEQHSQLNQTKIAYEQRLLNDLEDMDDPLDLFLDYMIWISTSYIEVDSESGQEVLRSTMERCLIYIQDMETYRNDPRFLKIWIWYINLFLSNNFHESENTFKYMFNKGIGTKLSLFYEEFSKLLENAQFFLEAKVLLELGAENNCRPYNRLLRSLSNYEDRLREMNIVENQNSVPDSRERLKGRLIYRTAPFFIRKFLTSS | soluble
24 | QKKDTSNHFHVFVGDLSPEITTEDIKAAFAPFGRISDARVVKDMATGKSKGYGFVSFFNKWDAENAIQQMGGQWLGGRQIRTNWATRKPPAPKSTYESNTKQ | soluble
25 | QLEKELEESAARYNQLAAQSRTITWEIDVTGLFTYVSPVVESVFGYLPNELVGAMRFYEIHPTEGRERFKTSFLEMFASKTIVEEVVHPVVAVDGRTIWMSTNALPILDEHGTLVGYRGACTDIS | not soluble
26 | QLTPTFYRETCPNLFPIVFGVIFDASFTDPRIGASLMRLHFHDCFVQGCDGSVLLNNTDTIESEQDALPNINSIRGLDVVNDIKTAVENSCPDTVSCADILAIAAEIASVLGGGPGWPVPLGRRDSLTANRTLANQNLPAPFFNLTQLKASFAVQGLNTLDLVTLSGGHTFGRARCSTFINRLYNFSNTGNPDPTLNTTYLEVLRARCPQNATGDNLTNLDLSTPDQFDNRYYSNLLQLNGLLQSDQELFSTPGADTIPIVNSFSSNQNTFFSNFRVSMIKMGNIGVLTGDEGEIRLQCNFVNG | soluble
27 | QMSLEGTEKASWLGEQPQFWSKTQVLDWISYQVEKNKYDASAIDFSRCDMDGATLCNCALEELRLVFGPLGDQLHAQLRDLTSSS | soluble
28 | QNFAIPTSSLEKTLLIGDYLFVSKLSYGPRSPMTPLGVPLTHNTMPLTGGKSFSDKPLLPYKRLKGFGHVKEGDLVVFNFPAGDTVAVKQPNPDYYMWKKLVGREELWSNPDFYGEIVYRPVDRRDHYVKRCVGMPGQELSIRNNQIYIDGKEQRNPRNMQLNYLVRMSREMSVDLIDELGISYDDVRAASSEELKASVGSNLIDSASNQPQIIYHLPLTQGMLDKLQAEPSFVKAVEEPTPIGPLYPLEYETGWTRDNYGPIVIPAKGMTVRLTPLNLALYSRCIRNFEGNKLVQKADGTVLINGRPADSYTFKMDY | not soluble
29 | QPPAPRMIADGYQLLSELGALDERKGLTQIGHQLARFPTDPRIARMIMAAKQENCLSEVLIIAAALSLQDPRDRPFEHQQAADQAHQPFRDDR | not soluble
30 | QRRLEVKGVVNNITVYDDFAHHPTAITATIDALRAKVGQQRILAVLEPRSNTMKMGVHKHELATSLQDADSVFIYQPPTIEWQVSEVLANLAQPAISADDVDELVMRIVQQAKPNDHILIMSNGAFGGIHQKLLTALANAFLMPS | not soluble
